These results are taken from PMC10774421 (Nature Communications, 2024).

The target of one test is T1, HiSiaP (Haemophilus influenzae, UniProt P44542, S67C/S194C).
T1 construct: gene siaP
The conditions noted are these: 50 mM Tris pH 8, 50 mM NaCl; average of triplicates; CLOSED #1, no oxidant added.

Test [1] concerns the target HiSiaQM OFS #2 (Y252C/M297C in HiSiaQM ΔCys) (Haemophilus influenzae) (UniProt P44543). Nature of the test: single-molecule TIRF microscopy.
A further test deals with T2, wild-type HiSiaQM (Haemophilus influenzae, UniProt P44543).
T2 construct: also called wt HiSiaQM; HiSiaQM wt
Nature of the test: single-molecule TIRF microscopy. Conditions: both partners purified.

The Kd is the constant that tells how readily two partners part at equilibrium. As to `CC(=O)N[C@H]1[C@H]([C@H](O)[C@H](O)CO)OC(O)(C(=O)O)C[C@@H]1O` (stereo partly drawn) [Neu5Ac], the Kd at HiSiaP was 800 nM.
For “AF647-labeled wild-type HiSiaP (K254C) (from UniProt P44542 24-329) (natural protein)”, the change of the rate of interactions (against the wild-type proteins) in test [1] was -50%.

B1: AF555-VHHQM3 (S85C) (VHH)
VHH: QLQLVETGGGLVQPGGSLRLSCTASRVTLDYHDIGWFRQAPGKEREGVSYISSSGGSTNYADSVKGRFTISRDNAKNTVYLQMNCLKPEDTAVYYCARSSAYGSSWLNPSRYDYWGQGTQVTVSS
Regarding B1, the binding result with wild-type HiSiaQM was “binds”.
